Test results published in paper PMC3663845.

Target: active (cleaved) presenilin of γ-secretase, marked at the active site by the inhibitor GTB (mouse (endogenous in primary hippocampal neurons))
Assay: proximity ligation; in situ PLA with 200 nM GTB (photoreactive biotinylated γ-secretase inhibitor, UV-irradiated, probed with streptavidin-oligonucleotide PLUS) in place of the PS antibody and mouse nicastrin-CT antibody (anti-mouse MINUS probe); fixed, 0.4% CHAPSO-permeabilised mouse primary hippocampal neurons; 10 µM L-685,458 as competitor of GTB in the control

nicastrin (from UniProt P57716 28-708) (natural protein)
PLA signals per cell: 214 signals/cell
fold increase of PLA signals over the sum of the negative controls (first way of calculating): 4.5 fold
fold increase of PLA signals over the sum of the negative controls (second way of calculating): 4.5 fold
